T1: hsGLUT4 E345A (human, UniProt P14672 1-509)
T1 sequence: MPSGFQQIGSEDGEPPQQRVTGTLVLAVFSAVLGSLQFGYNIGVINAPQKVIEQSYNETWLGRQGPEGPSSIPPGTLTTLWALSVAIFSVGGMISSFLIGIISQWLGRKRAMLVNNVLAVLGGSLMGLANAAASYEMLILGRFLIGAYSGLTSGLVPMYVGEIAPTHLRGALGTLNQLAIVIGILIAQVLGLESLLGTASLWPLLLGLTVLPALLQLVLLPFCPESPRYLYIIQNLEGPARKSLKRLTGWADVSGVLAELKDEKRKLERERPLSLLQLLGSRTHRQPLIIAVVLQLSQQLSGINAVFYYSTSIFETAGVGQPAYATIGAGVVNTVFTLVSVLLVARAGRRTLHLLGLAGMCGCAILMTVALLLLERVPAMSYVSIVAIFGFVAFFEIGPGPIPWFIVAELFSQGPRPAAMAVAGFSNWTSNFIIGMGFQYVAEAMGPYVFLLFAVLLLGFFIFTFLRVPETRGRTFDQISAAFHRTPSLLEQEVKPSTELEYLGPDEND

T2: hsGLUT4 L260A (human, UniProt P14672 1-509)
T2 sequence: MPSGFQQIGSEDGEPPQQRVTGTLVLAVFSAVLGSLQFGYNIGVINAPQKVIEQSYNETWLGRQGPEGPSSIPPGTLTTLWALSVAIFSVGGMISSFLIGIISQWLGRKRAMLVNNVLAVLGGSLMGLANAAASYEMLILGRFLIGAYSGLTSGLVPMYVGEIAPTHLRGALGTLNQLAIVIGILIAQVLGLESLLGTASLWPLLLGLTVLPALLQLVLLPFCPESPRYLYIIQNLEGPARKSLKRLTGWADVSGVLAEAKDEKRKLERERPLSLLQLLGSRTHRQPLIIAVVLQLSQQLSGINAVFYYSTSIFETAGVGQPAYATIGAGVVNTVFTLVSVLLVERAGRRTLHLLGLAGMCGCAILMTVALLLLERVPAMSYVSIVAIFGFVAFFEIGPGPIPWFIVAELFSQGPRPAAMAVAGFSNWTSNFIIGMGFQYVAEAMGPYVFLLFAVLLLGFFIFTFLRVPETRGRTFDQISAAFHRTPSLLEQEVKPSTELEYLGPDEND

T3: hsGLUT4 R416A (human, UniProt P14672 1-509)
T3 sequence: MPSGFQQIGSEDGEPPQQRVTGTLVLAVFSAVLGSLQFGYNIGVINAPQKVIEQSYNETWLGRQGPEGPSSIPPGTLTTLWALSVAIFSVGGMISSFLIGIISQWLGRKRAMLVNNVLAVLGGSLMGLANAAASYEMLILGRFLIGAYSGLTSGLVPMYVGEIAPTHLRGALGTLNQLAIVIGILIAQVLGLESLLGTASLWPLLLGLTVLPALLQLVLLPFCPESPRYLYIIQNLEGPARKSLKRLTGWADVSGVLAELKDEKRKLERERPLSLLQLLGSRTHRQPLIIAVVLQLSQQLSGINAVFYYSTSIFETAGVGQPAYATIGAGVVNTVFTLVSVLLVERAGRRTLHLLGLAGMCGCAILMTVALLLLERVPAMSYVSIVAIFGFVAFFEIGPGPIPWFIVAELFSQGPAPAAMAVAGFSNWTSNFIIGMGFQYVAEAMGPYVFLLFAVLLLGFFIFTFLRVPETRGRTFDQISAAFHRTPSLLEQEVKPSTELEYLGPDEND

T4: hsGLUT4 Y159A (human, UniProt P14672 1-509)
T4 sequence: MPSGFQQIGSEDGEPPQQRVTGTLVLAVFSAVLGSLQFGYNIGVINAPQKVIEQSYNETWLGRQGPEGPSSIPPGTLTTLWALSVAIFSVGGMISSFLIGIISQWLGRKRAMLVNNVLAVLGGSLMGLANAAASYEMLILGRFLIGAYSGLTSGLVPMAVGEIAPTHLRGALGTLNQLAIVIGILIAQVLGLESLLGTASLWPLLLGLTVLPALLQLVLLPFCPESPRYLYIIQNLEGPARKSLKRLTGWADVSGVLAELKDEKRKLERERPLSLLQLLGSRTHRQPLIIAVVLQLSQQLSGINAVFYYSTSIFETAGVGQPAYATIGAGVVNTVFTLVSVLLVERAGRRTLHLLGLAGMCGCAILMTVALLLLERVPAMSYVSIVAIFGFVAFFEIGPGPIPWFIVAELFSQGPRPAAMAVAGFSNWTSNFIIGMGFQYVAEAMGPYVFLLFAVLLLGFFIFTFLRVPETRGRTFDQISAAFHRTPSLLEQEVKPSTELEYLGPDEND

B1: AB111 (Fc fusion)
scFv: ALTQPSSVSANPGETVKITCSGSGSWYGWFQQKSPGSAPVTVIYSNDKRPSDIPSRFSGSKSGSTSTLTITGVQVEDEAVYYCGNWDIFGAGTTLTVLGQSSRSSGGGGSSGGGGSAVTLDESGGGLQTPGGALSLVCKASGFTFSSHGMGWVRQAPGKGLEWVASISTGRYTFYAPAVKGRATISRDNGQSTVRLQLNNLRAEDTATYYCTKCAGLNGCGGGEIDAWGHGTEVIVSS
notes: Bivalent scFv-Fc; also called MAb AB111; not shown: Fc fragment of human IgG1, cloned in frame with the scFv
B2: AB108 (Fc fusion)
scFv: ALTQPSSVSANLGGTVKITCSGSSGSYGWYQQKAPGSAPVTLIYRNDKRPSDIPSRFSGSESGSTGTLTITGVQAEDEAVYFCGGYDSSAGYAAFGAGTTLTVLGQSSRSSGGGGSSGGGGSAVTLDESGGGLQTPGGALSLVCKASGFTFSSHGMGWVRQAPGKGLEWVGSISTGRYTFYAPAVKGRATISRDNGQSTLRLQLNNLRAEDTGTYYCTKCAGLNGCGGGEIDAWGHGTEVIVSS
notes: Bivalent scFv-Fc; also called MAb AB108; not shown: Fc fragment of human IgG1, cloned in frame with the scFv
B3: AB101 (scFv)
scFv: ALTQPSSVSANPGETVKITCSGSSNSYGWYQQKSPGSAPVTVIYYNDKRPSDIPSRFSGSKSDSTHTLTITGVRAEDEAVYFCGSYDSTYVGIFGAGTTLTVLGQSSRSSGGGGSSGGGGSAVTLDESGGGLQTPGGTLSLVCKASGFTFSSNAMGWVRQAPGKGLEWVAGISSDGRYTKYGSAVKGRATISRDNGQSTVRLQLNNLRAEDTGTYFCAKAFGNNYRRIYAGQIDAWGHGTEVIVSS
notes: Chicken-derived clone used as a control; the four lead clones were tested as scFv-human IgG1 Fc; also called MAb AB101

What was measured:
Experiment in all cases: flow cytometry, alanine-scan library in HEK-293T
hsGLUT4 E345A = target: T1, hsGLUT4 E345A
Outline: (§1)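 HEK-293T cells expressing individual GLUT4 alanine mutants were stained 48 h post-transfection with anti-GLUT4 scFv MAbs (2 μg/ml), then biotinylated secondary and streptavidin-PerCP, and read by high-throughput flow cytometry. Where used, cytochalasin B (10 uM final) was given for 30 min before and during primary antibody staining.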

hsGLUT4 L260A = target: T2, hsGLUT4 L260A
Outline: as §1

hsGLUT4 R416A = target: T3, hsGLUT4 R416A
Outline: as §1

hsGLUT4 Y159A = target: T4, hsGLUT4 Y159A
Outline: as §1

| Molecule | % of binding to wild type GLUT4 (hsGLUT4 E345A) [%] | % of binding to wild type GLUT4 (hsGLUT4 L260A) [%] | % of binding to wild type GLUT4 (hsGLUT4 R416A) [%] | % of binding to wild type GLUT4 (hsGLUT4 Y159A) [%] |
| --- | --- | --- | --- | --- |
| 1F8 (antibody) | 93 | 98 | 73 | 96 |
| B1 | 200 | 130 | 157 | 88 |
| B2 | 88 | 108 | 67 | 46 |
| B3 | 78 | 112 | 69 | 122 |
